In patent US20020098527A1 (Kyowa Kirin, published 2002):

Assays:
[1] = target: T1, hCCR4 partial peptide (Compound 1) (human, conjugated with thyroglobulin (THY) using SMCC as the crosslinking agent); experiment: ELISA on plate-coated hCCR4 partial peptide conjugate
T1 construct: Synthetic peptide, coated on ELISA plates as a THY conjugate
T1 peptide: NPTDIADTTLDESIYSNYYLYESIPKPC

[2] = target: T2, human CC chemokine receptor 4 (human CCR4) (human, UniProt P51679 1-360); experiment: flow cytometry (immunofluorescent method) on hCCR4-high-expressing EL-4 cells
T2 construct: Expressed on mouse EL-4 cells transfected with hCCR4 DNA (CCR4/EL-4); also called hCCR4; K5-5
T2 sequence: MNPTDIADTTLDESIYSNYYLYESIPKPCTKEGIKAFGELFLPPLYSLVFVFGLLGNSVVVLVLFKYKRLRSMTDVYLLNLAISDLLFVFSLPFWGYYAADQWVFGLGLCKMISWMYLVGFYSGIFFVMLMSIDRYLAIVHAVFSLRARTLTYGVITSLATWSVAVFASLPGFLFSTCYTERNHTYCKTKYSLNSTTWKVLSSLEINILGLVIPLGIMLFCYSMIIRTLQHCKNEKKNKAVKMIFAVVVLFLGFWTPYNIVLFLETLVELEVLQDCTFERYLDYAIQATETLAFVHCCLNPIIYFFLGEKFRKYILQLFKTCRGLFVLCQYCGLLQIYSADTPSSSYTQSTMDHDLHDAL
Description: They were selected by an immunofluorescent method using KM2160 prepared in Example 1(5). Into a 96 well U shape plate, 2×10⁵ cells of each of selected several tens of the gene-introduced clones was dispensed. KM2160 labeled with biotin by a known method (Enzyme Antibody Method, published by Gakusai Kikaku) was diluted to 5 μg/ml with a buffer for FACS (1% BSA-PBS, 0.02% EDTA, 0.05% NaN₃, pH 7.4), human IgG (manufactured by Welfide) was diluted to 3.75 mg/ml to prevent nonspecific staining, each of the thus diluted antibody solution was dispensed at 200 μl/well, and the mixture was allowed to react in ice for 30 minutes. As a negative control, biotinylated anti-IL-5R antibody (WO 97/10354) was used at the same concentration. After washing twice with 200 μl/well of the buffer, streptoavidin-PE (manufactured by Becton Dickinson Japan) was dispensed at 20 μl/well. Thirty minutes after the reaction in ice in the dark, the cells were washed three times with 200 μl/well and finally suspended to 500 μl, and the fluorescence intensity was measured by a flow cytometer to select one cell line having the highest fluorescence intensity.
Reactivity of the purified anti-CCR4 chimeric antibody KM2760 with the hCCR4-high-expressing cell (hereinafter referred to as “CCR4/EL-4”) produced in 3(4) of Example 2 was measured in the same manner as in 3(4) of Example 2.

[3] = target: T3, mCCR4 partial peptide (Compound 2) (mouse, conjugated with thyroglobulin (THY) using SMCC as the crosslinking agent); experiment: ELISA, THY-peptide conjugate coated at 10 µg/ml, antibody concentration varied
T3 construct: Synthetic peptide, coated on ELISA plates as a THY conjugate
T3 peptide: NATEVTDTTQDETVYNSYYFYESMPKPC
Description: (§1) The conjugate prepared in the above manner was dispensed at 10 μg/ml and 50 μl/well into a 96 well plate for EIA (manufactured by Greiner) and adhered thereto by incubating it at 4° C. overnight. After washing with PBS, 1% BSA-containing PBS (hereinafter referred to as “1% BSA-PBS”) was added at 100 μl/well, and the mixture was allowed to react at room temperature for 1 hour to block the remaining active groups. After removing 1% BSA-PBS, diluted solutions of a transformant culture supernatant, a purified mouse antibody or a purified human chimeric antibody was dispensed at 50 μl/well, and the mixture was allowed to react at room temperature for 1 hour. […] After the reaction, each well was washed with Tween-PBS, ABTS solution (a solution prepared by dissolving 0.55 g of 2,2′-azino-bis(3-ethylbenzothiazoline-6-sulfonic acid)ammonium in 1 liter of 0.1 M citrate buffer (pH 4.2), and adding 1 μl/ml of hydrogen peroxide just before use) was dispensed at 50 μl/well for color developing, and the absorbance at 415 nm (hereinafter referred to as “OD₄₁₅”) was measured.
(§2) Reactivity of the purified anti-CCR4 chimeric antibody KM2760 to human CCR4 and mouse CCR4 was measured by ELISA shown in 2(3) of Example 2. […]

[4] = target: T1, hCCR4 partial peptide (Compound 1); experiment: as above
Description: as §1, §2

B1: mouse anti-CCR4 monoclonal antibody KM2160 (antibody, mouse IgG1, V domains shown)
VH: EVQLVESGGDLMKPGGSLKISCAASGFIFSNYGMSWVRQTPDMRLEWVATISSASTYSYYPDSVKGRFTISRDNAENSLYLQMNSLRSEDTGIYYCGRHSDGNFAFGYWGRGTLVTVSA
VL: DVLMTQTPLSLPVSLGDQASISCRSSRNIVHINGDTYLEWYLQRPGQSPKLLIYKVSNRFSGVPDRFSGSGSGTDFTLKISRVEAEDLGVYYCFQGSLLPWTFGGGTRLEIRR
notes: Mouse IgG1 class with a kappa L chain, produced by hybridoma KM2160; also called anti-CCR4 mouse antibody KM2160
binding result [1]: binds

B2: anti-CCR4 chimeric antibody KM2760 (antibody, V domains shown)
VH: EVQLVESGGDLMKPGGSLKISCAASGFIFSNYGMSWVRQTPDMRLEWVATISSASTYSYYPDSVKGRFTISRDNAENSLYLQMNSLRSEDTGIYYCGRHSDGNFAFGYWGRGTLVTVSA
VL: DVLMTQTPLSLPVSLGDQASISCRSSRNIVHINGDTYLEWYLQRPGQSPKLLIYKVSNRFSGVPDRFSGSGSGTDFTLKISRVEAEDLGVYYCFQGSLLPWTFGGGTRLEIRR
notes: Human chimeric antibody: CH is human IgG1 subclass and CL is human kappa class (vector pKANTEX93); It was expressed in rat YB2/0 cells; It was used biotinylated in the flow cytometry assays
binding result [2]: binds | binding result [3]: binds | binding result [4]: binds
